From US20240417436A1 (BRIGHT PEAK THERAPEUTICS, published 2024)
Blank lines part the entries; values can stand above or below the binder they belong to. Bridges are numbered along the chain shown (N, C = ends). Primed or numbered codes have the meaning given here. [ ]: non-standard residue; d: D form. cleavable peptide, 4x polyethylene glycol = not defined here; Ygp = O-(8x polyethylene glycol-amino)-tyrosine; Yn3 = O-(9x polyethylene glycol-azido)-tyrosine; 4x polyethylene glycol = not defined here; cleavable moiety, PEG9 = not defined here; PEG4′ = 4x polyethylene glycol; PEG9″ = 9x polyethylene glycol; hSer = N[C@@H](CCO)C(=O)O; Nle = CCCC[C@H](N)C(=O)O

Target: T1, IL-2 receptor βγ complex on pan T cells (human, UniProt P14784 27-551; P31785 23-369)
T1 sequence (looked up) 1: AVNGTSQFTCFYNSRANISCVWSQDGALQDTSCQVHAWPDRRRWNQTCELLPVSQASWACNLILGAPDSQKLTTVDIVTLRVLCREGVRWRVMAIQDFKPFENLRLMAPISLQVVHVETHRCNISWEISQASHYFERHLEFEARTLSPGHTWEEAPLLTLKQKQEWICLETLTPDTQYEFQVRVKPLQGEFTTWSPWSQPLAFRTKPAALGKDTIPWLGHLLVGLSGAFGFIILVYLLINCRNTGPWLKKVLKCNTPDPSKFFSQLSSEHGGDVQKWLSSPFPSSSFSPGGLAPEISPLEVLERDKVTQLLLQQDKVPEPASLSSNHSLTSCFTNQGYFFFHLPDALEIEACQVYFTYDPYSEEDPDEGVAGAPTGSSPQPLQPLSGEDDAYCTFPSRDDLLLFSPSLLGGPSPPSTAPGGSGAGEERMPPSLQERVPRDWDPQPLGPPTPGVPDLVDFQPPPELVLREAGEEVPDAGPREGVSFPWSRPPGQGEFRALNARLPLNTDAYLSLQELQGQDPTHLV
T1 sequence (looked up) 2: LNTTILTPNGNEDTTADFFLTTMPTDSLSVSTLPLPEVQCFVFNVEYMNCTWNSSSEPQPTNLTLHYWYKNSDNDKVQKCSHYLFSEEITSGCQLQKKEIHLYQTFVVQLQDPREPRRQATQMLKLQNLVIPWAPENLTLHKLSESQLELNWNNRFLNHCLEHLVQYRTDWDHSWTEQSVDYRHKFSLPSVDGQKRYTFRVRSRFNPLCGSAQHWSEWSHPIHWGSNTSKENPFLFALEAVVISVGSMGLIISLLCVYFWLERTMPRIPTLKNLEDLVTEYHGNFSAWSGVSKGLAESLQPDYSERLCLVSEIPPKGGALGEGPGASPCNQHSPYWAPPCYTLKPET
Assay: cell-based or functional assay

B1: CMP-162, MMP2 cleaved (ligand)
chain: APTSSSTKKTQLQLEHLLLDLQKILNGINNYKNPKLTR[Nle]L[hSer][Yn3]KF[Ygp][Nle]PKKATELKHLQCLEEELKPLEEVL[hSer]LAQSKNFHLRPRDLISNINVIVLELKGSETTF[hSer]CEYADETATIVEFLNRWITFSQSIISTLT
modifications: not fully specified (residue 23); ends and bridges not checked; also: cleavable peptide on Lys23 cut by MMP2, remnant stays attached, cut site not given here
Average EC50, pSTAT5 assay in pan T cells, MMP2 cleaved molecule: 0.758 nM

B2: CMP-161, MMP2 cleaved (ligand)
chain: PLGLAGAPTSSSTKKTQLQLEHLLLDLQ[Nle]ILEGINNYKNPKLTR[Nle]L[hSer][Yn3]KF[Ygp][Nle]PKKATELKHLQCLEEELKPLEEVL[hSer]LAQSKNFHLRPRDLISNINVIVLELKGSETTF[hSer]CEYADETATIVEFLNRWITFSQSIISTLT
modifications: not fully specified; ends and bridges not checked; also: before cut, residues 1..32 linked via PEG9 (Glu32 side chain)
Average EC50, pSTAT5 assay in pan T cells, MMP2 cleaved molecule: 3.59 nM

B3: CMP-158, MMP2 cleaved (ligand)
chain: APTSSSTKKTQLQLEHLLLDLE[Nle]ILNGINNYKNPKLTR[Nle]L[hSer][Yn3]KF[Ygp][Nle]PKKATELKHLQCLEEELKPLEEVL[hSer]LAQSKNFHLRPRDLISNINVIVLELKGSETTF[hSer]CEYADETATIVEFLNRWITFSQSIISTLT
modifications: also: MMP2-cleaved cleavable peptide, macrocycle opened, cut site not given here, remnants on Glu22 and N-terminus unspecified
Average EC50, pSTAT5 assay in pan T cells, MMP2 cleaved molecule: 1.95 nM

B4: CMP-162 (ligand)
chain: APTSSSTKKTQLQLEHLLLDLQKILNGINNYKNPKLTR[Nle]L[hSer][Yn3]KF[Ygp][Nle]PKKATELKHLQCLEEELKPLEEVL[hSer]LAQSKNFHLRPRDLISNINVIVLELKGSETTF[hSer]CEYADETATIVEFLNRWITFSQSIISTLT
modifications: not fully specified (residue 23); ends and bridges not checked; also: cleavable moiety on Lys23 side chain, structure not given here
Average EC50, pSTAT5 assay in pan T cells, intact molecule: 2.79 nM

B5: CMP-155, MMP2 cleaved (ligand)
chain: APTSSSTKKTQLQLEHLLLDLQ[Nle]ILNGIENYKNPKLTR[Nle]L[hSer][Yn3]KF[Ygp][Nle]PKKATELKHLQCLEEELKPLEEVL[hSer]LAQSKNFHLRPRDLISNINVIVLELKGSETTF[hSer]CEYADETATIVEFLNRWITFSQSIISTLT
modifications: also: MMP2-cleaved cleavable peptide, macrocycle opened, cut site not given here, remnants on Glu29 and N-terminus unspecified
Average EC50, pSTAT5 assay in pan T cells, MMP2 cleaved molecule: 2.9 nM

B6: CMP-159, MMP2 cleaved (ligand)
chain: PLGLAGAPTSSSTKKTQLQLEHLLLDLE[Nle]ILNGINNYKNPKLTR[Nle]L[hSer][Yn3]KF[Ygp][Nle]PKKATELKHLQCLEEELKPLEEVL[hSer]LAQSKNFHLRPRDLISNINVIVLELKGSETTF[hSer]CEYADETATIVEFLNRWITFSQSIISTLT
modifications: not fully specified (bridges); ends and bridges not checked; also: cleaved by MMP2 (macrocycle opened), cut site not given here
Average EC50, pSTAT5 assay in pan T cells, MMP2 cleaved molecule: 2.27 nM

B8: CMP-160, MMP2 cleaved (ligand)
chain: APTSSSTKKTQLQLEHLLLDLQ[Nle]ILEGINNYKNPKLTR[Nle]L[hSer][Yn3]KF[Ygp][Nle]PKKATELKHLQCLEEELKPLEEVL[hSer]LAQSKNFHLRPRDLISNINVIVLELKGSETTF[hSer]CEYADETATIVEFLNRWITFSQSIISTLT
modifications: ends and bridges not checked; also: cleavable moiety between Glu26 side chain and N-terminus (via PEG9) cut by MMP2, macrocycle opened, cut site not given here
Average EC50, pSTAT5 assay in pan T cells, MMP2 cleaved molecule: 2.21 nM

B11: CMP-161 (ligand)
chain: PLGLAGAPTSSSTKKTQLQLEHLLLDLQ[Nle]ILEGINNYKNPKLTR[Nle]L[hSer][Yn3]KF[Ygp][Nle]PKKATELKHLQCLEEELKPLEEVL[hSer]LAQSKNFHLRPRDLISNINVIVLELKGSETTF[hSer]CEYADETATIVEFLNRWITFSQSIISTLT
modifications: linker N-32 via PEG9″; ends not checked
Average EC50, pSTAT5 assay in pan T cells, intact molecule: 29.4 nM

B13: CMP-158 (ligand)
chain: APTSSSTKKTQLQLEHLLLDLE[Nle]ILNGINNYKNPKLTR[Nle]L[hSer][Yn3]KF[Ygp][Nle]PKKATELKHLQCLEEELKPLEEVL[hSer]LAQSKNFHLRPRDLISNINVIVLELKGSETTF[hSer]CEYADETATIVEFLNRWITFSQSIISTLT
modifications: linker N-22 via cleavable peptide, 4x polyethylene glycol; not fully specified; reading uncertain
Average EC50, pSTAT5 assay in pan T cells, intact molecule: 36.6 nM

Second part, the binder after the results:

Average EC50, pSTAT5 assay in pan T cells, MMP2 cleaved molecule: 10 nM
B7: CMP-157, MMP2 cleaved (ligand)
chain: PLGLAGAPTSSSTKKTQLQLEHLLEDLQ[Nle]ILNGINNYKNPKLTR[Nle]L[hSer][Yn3]KF[Ygp][Nle]PKKATELKHLQCLEEELKPLEEVL[hSer]LAQSKNFHLRPRDLISNINVIVLELKGSETTF[hSer]CEYADETATIVEFLNRWITFSQSIISTLT
modifications: also: macrocycle (4x PEG linker between residue 1 and Glu25 side chain) opened by MMP2 cleavage within PLGLAG, cut site not given here

Average EC50, pSTAT5 assay in pan T cells, intact molecule: 35.5 nM
B9: CMP-159 (ligand)
chain: PLGLAGAPTSSSTKKTQLQLEHLLLDLE[Nle]ILNGINNYKNPKLTR[Nle]L[hSer][Yn3]KF[Ygp][Nle]PKKATELKHLQCLEEELKPLEEVL[hSer]LAQSKNFHLRPRDLISNINVIVLELKGSETTF[hSer]CEYADETATIVEFLNRWITFSQSIISTLT
modifications: linker N-28 via PEG4′; ends not checked

Average EC50, pSTAT5 assay in pan T cells, MMP2 cleaved molecule: 21.3 nM
B10: CMP-156, MMP2 cleaved (ligand)
chain: APTSSSTKKTQLQLEHLLEDLQ[Nle]ILNGINNYKNPKLTR[Nle]L[hSer][Yn3]KF[Ygp][Nle]PKKATELKHLQCLEEELKPLEEVL[hSer]LAQSKNFHLRPRDLISNINVIVLELKGSETTF[hSer]CEYADETATIVEFLNRWITFSQSIISTLT
modifications: also: MMP2-cleaved cleavable peptide, macrocycle opened, cut site not given here, remnants on Glu19 and N-terminus unspecified

Average EC50, pSTAT5 assay in pan T cells, intact molecule: 86 nM
B12: CMP-156 (ligand)
chain: APTSSSTKKTQLQLEHLLEDLQ[Nle]ILNGINNYKNPKLTR[Nle]L[hSer][Yn3]KF[Ygp][Nle]PKKATELKHLQCLEEELKPLEEVL[hSer]LAQSKNFHLRPRDLISNINVIVLELKGSETTF[hSer]CEYADETATIVEFLNRWITFSQSIISTLT
modifications: linker N-19 via cleavable peptide, 4x polyethylene glycol; not fully specified; reading uncertain

Average EC50, pSTAT5 assay in pan T cells, intact molecule: 54.5 nM
B14: CMP-157 (ligand)
chain: PLGLAGAPTSSSTKKTQLQLEHLLEDLQ[Nle]ILNGINNYKNPKLTR[Nle]L[hSer][Yn3]KF[Ygp][Nle]PKKATELKHLQCLEEELKPLEEVL[hSer]LAQSKNFHLRPRDLISNINVIVLELKGSETTF[hSer]CEYADETATIVEFLNRWITFSQSIISTLT
modifications: linker N-25 via 4x polyethylene glycol; reading uncertain

Average EC50, pSTAT5 assay in pan T cells, intact molecule: 27.8 nM
B15: CMP-160 (ligand)
chain: APTSSSTKKTQLQLEHLLLDLQ[Nle]ILEGINNYKNPKLTR[Nle]L[hSer][Yn3]KF[Ygp][Nle]PKKATELKHLQCLEEELKPLEEVL[hSer]LAQSKNFHLRPRDLISNINVIVLELKGSETTF[hSer]CEYADETATIVEFLNRWITFSQSIISTLT
modifications: linker N-26 via cleavable moiety, PEG9; ends not checked; also: cleavable moiety sequence not given here
